Test results: patent US20250388936A1, “METHODS AND CELLS FOR THE PRODUCTION OF FLUORINATED COMPOUNDS” (priority 2022, published 2025)

Experiments:
[1] = Steady-state fluorination kinetics of purified fluorinases (5′-FDA by HPLC); format: biochemical; details: 50 mM HEPES, pH 7.8, 75 mM KF, varying SAM, 37° C., triplicate
Experimental: (§1) 96-well activity assays were carried out in 150 μL reactions containing 50 mM HEPES pH 7.8, 75 mM KF, ˜1 μM fluorinase (considering the theoretical molecular mass), and 10, 25, 50, 100, 250, or 500 μM SAM (New England Biolabs). 96-well PCR plates were sealed and incubated for 1 h at 37° C., 5 min at 95° C., and cooled to 10° C. in a thermocycler (Bio-Rad). The plates were then centrifuged for 30 min at 2,500×g and 120 μL of supernatants were transferred to round-bottom 96-well plates (Thermo Scientific), which were sealed with a silicone lid for HPLC analysis. Transhalogenation reactions were carried out in the same way, but using increasing concentrations of 5′-CIDA (5′-chloro-5′-deoxyadenosine) in the presence of 1 mM L-Met.
Steady-state kinetics were performed in the same conditions with slight variations. Triplicate reactions (600 μL final volume) were prepared in 1.5-mL tubes and incubated for 5 min at 37° C. before addition of SAM (1.5625-800 μM), after which 90 μL aliquots were removed at different time-points (2, 5, 10, 15, 20 and 30 minutes), boiled for 5 min at 95° C., and placed on ice. Samples were centrifuged at maximum speed for 10 min at 4° C. before being transferred to 96-well plates for 5′-FDA quantitation by HPLC analysis. Product formation rates for the different substrate concentrations were calculated by least squares linear regression with at least three time-points and fitted to the Michaelis-Menten equation using the Origin software (OriginLab Corporation).
(§2) 5′-FDA was quantified following absorbance at 230 nm using a Zorbax C18 column (3.5 μm 4.6×100 mm, Agilent) connected to a HPLC system (Dionex Ultimate 3000, ThermoFisher) with the following gradient (1 mL/min flow rate): 5-12% solvent B in 1.5 min, 12% solvent B for 1 min, 12-30% solvent B in 2 min, 30-70% B in 1.5 min (solvent A: 0.05% acetic acid in water; solvent B: acetonitrile). A six-point calibration curve (R2>0.99) was prepared with 0.5-50 μM 5′-FDA, which was chemically synthesized as previously described (Calero et al., 2020).

[2] = 96-well end-point (1 h) fluorinase activity assay; format: biochemical; details: purified enzymes, increasing SAM concentrations, 5′-FDA by HPLC
Experimental: as §1, §2

[3] = format: cell-based, Pseudomonas putida KT2440; details: induction with 15 mM NaF, 20 h, 30° C., LC-MS
[4] = Chlorination reaction, KF replaced by KCl; format: biochemical
Text: Since FlA^PtaU1 was predicted to be a chlorinase, we evaluated whether it was also active towards SN2-dependent addition of Cl^− onto SAM. […] Previous studies have shown that FlA^Scat can also catalyze the chlorination reaction (Deng et al., 2006). However, this feature requires the simultaneous removal of L-Met or 5′-CIDA, the reaction products, since the reverse dehalogenation reaction is favored. We could observe transhalogenation on 5′-CIDA (i.e. 5′-FDA production in the presence of L-Met and F^−, steps III and I in FIG. 20, respectively; see FIG. 29). Again, FlA^PtaU1 catalytically outperformed all other fluorinases, with a 3-fold higher Vmax value. Although we cannot rule out that FlA^PtaU1 could execute de novo chlorination, it is clear that the 23-residue loop reportedly found in «conventional» fluorinases is not essential for the activity towards F^−.

[5] = End-point (1 h) transhalogenation assay; format: biochemical; details: 5′-FDA production from 5′-CIDA, 1 mM L-Met, 75 mM KF, 37° C.
Experimental: as §1, §2

[6] = Coupled enzymatic assay, conversion of 5′-FDA into FAld; format: biochemical; details: with isomerase^S. cattleya and aldolase^S. coelicolor
Experimental: Coupled isomerase and aldolase activity was monitored by following the consumption of DHAP, through NADH reduction at 340 nm (ε=6220 M^−1 cm^−1) via the activity of a Glycerol-3-Phosphate Dehydrogenase (GPDH, Sigma Aldrich). 5′-FDRP was produced by incubating chemically synthetized 5′-FDA (Calero et al. 2020) at 7.43 mM with 0.5 U Nucleoside Phosphorylase (PNP1, Sigma Aldrich) in 10 mM Tris buffer, for 16 h at 30° C. The assay was carried in 200 μl total volume at 30° C. over a time course of 3 hours. Reaction conditions were 50 mM Tris-HCl Buffer pH7.5, 200 μM NADH, 200 μM 5′-FDRP, 1 U GPDH and 10 μg purified of each enzyme. The reduction of NADH was followed at absorbance 340 nm in a Microtiter Plate reader (BioTek, Elx808).
We used this enzymatic assay with cell-free extracts of cultures of P. putida KT2440::FRS-T7RNAP expressing an isomerase and an aldolase from S. cattleya (isoSc, isomerase^S. cattleya) and S. coelicolor (aldSc, aldolase^S. coelicolor), respectively, that have been previously shown that are able to use fluorinated intermediates (Deng et al., 2008), as well as both an isomerase (isoBt, isomerase^B. thuringiensis) and an aldolase (aldBt) from B. thuringiensis that have been previously described to perform the same reaction with the non-fluorinated metabolites (Beaudoin 2018). […]

[7] = Eustaquio et al., 2008; cited from earlier work

Molecule | Km [1] | kcat [1] | Production of 5′-FDA in vivo [3] | further results
FIA^PtaU1: fluorinase of Methanosaeta sp. PtaU1.Bin055, SEQ ID NO: 1, accession OPY51785.1 (protein, listed as Methanosaeta sp., Methanosaeta sp. PtaU1.Bin055) MLQNTKNEYKPRDGGGHRPIIGFMSDLGTEDDSVGICKGVMLGLCPDAVIVDISHSMTPWDIDQGSRLIVDLPKFFPNWTTFATTSYRETGTSARSVAIKLPSGHVYVAPNNGLLTRVIEDHGYVEAYEVTTVGAIPAEPEPTWFSRDMVAYPAAAIAAGFPLENVGRPLNDSEIVRADLPRYTQAEDGIIQGIVTTIDRPFGNIWTNIPRRIIENELRIAYGTNIRVVLDNLLVLEVPFMRTFGDVGLKKPMCYINSRGYFSLAYYGGNLADPYNIRRGMPVKIESITR | 6.99 ± 1.06 µM | 0.00683 ± 0.00017 s⁻¹ | could be detected | 5′-FDA synthase activity [2]: one of the top performers; intracellular 5′-FDA, fold higher with respect to the other three fluorinase genes [3]: 6- to 12 fold; 5′-CIDA accumulation [4]: no 5′-CIDA accumulation could be detected; Vmax, fold higher than all other fluorinases [5]: 3 fold
DeoD: PNP from E. coli, SEQ ID NO: 15 (protein, listed as Escherichia coli) MATPHINAEMGDFADVVLMPGDPLRAKYIAETFLEDAREVNNVRGMLGFTGTYKGRKISVMGHGMGIPSCSIYTKELITDFGVKKIIRVGSCGAVLPHVKLRDVVIGMGACTDSKVNRIRFKDHDFAAIADFDMVRNAVDAAKALGIDARVGNLFSADLFYSPDGEMFDVMEKYGILGVEMEAAGIYGVAAEFGAKALTICTVSDHIRTHEQTTAAERQTTFNDMIKIALESVLLGDKE | – | – | – | conversion of 5′-FDA into FAld [6]: conversion was higher
SalL^Stro: chlorinase from Salinispora tropica CNB-440, accession 2Q6L_A (protein, UniProt A4X3Q0 1-283, looked up) Adenosyl-chloride synthase: MQHNLIAFLSDVGSADEAHALCKGVMYGVAPAATIVDITHDVAPFDVREGALFLADVPHSFPAHTVICAYVYPETGTATHTIAVRNEKGQLLVGPNNGLLSFALDASPAVECHEVLSPDVMNQPVTPTWYGKDIVAACAAHLAAGTDLAAVGPRIDPKQIVRLPYASASEVEGGIRGEVVRIDRAFGNVWTNIPTHLIGSMLQDGERLEVKIEALSDTVLELPFCKTFGEVDEGQPLLYLNSRGRLALGLNQSNFIEKWPVVPGDSITVSPRVPDSNLGPVLG | – | – | – | activity on F^− [7]: inactive on F^−
FIA^MA37: fluorinase of Streptomyces sp. MA37, SEQ ID NO: 30, accession CDH39444.1 (protein, listed as Streptomyces sp., Streptomyces sp. MA37) MAANGSQRPIIAFMSDLGTTDDSVAQCKGLMHSICPGVTVVDVCHSMTPWDVEEGARYIVDLPRFFPEGTVFATTTYPATGTTTRSVAVRIRQAAKGGARGQWAGSGDGFERADGSYIYIAPNNGLLTTVLEEHGYIEAYEVTSTKVIPANPEPTFYSREMVAIPSAHLAAGFPLAEVGRRLDDSEIVRFHRPAVEISGEALSGVVTAIDHPFGNIWTNIHRTDLEKAGIGQGKHLKIILDDVLPFEAPLTPTFADAGAIGNIAFYLNSRGYLSLARNAASLAYPYNLKAGLKVRVEAR | 4.42 ± 0.58 µM | 0.00267 ± 0.00017 s⁻¹ | could be detected | –
